From patent US20140017259A1 (TAKIS S R L, published 2014)

Legend:
[1] = target: T1, mouse HER3 (mouse, UniProt Q61526 20-1339); assay: flow cytometry on CHO cells transiently transfected with mouse HER3
T1 construct: whole, on cells; also called murine HER3

[2] = target: T2, Recombinant protein HER3-ECD-Fc (RnD Systems) (human, UniProt P21860 20-643); assay: SPR, Biacore T100: antibody captured on an anti-Fc CM5 chip, HER3-ECD-Fc injected as analyte
T2 construct: extracellular domain; also called Human ErbB3 ECD-Fc protein (RnD); not shown: Fc part of the bought fusion
T2 sequence (P21860 20-643): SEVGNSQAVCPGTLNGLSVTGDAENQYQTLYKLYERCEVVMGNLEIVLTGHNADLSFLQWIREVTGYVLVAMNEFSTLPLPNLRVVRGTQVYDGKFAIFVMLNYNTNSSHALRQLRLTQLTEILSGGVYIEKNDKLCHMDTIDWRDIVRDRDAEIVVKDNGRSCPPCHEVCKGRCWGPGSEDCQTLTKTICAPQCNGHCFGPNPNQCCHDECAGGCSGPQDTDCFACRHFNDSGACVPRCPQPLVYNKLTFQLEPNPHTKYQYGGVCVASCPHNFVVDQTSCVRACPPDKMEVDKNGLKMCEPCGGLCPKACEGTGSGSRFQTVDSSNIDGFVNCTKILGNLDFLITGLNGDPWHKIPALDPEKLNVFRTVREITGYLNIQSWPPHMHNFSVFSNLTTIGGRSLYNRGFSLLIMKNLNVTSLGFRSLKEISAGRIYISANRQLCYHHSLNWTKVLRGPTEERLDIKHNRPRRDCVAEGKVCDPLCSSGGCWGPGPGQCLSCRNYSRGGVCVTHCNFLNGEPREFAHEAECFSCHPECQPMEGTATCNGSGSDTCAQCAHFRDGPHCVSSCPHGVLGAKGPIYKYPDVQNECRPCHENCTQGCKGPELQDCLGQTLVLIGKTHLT
Method: Among the hybridomas described above, two antibodies, A3 and A4, were further selected for a biochemical and functional characterization. In particular, the following assays have been performed: [0174] Bioacore analysis. Affinity for HER3 and kₒₙ/koff were determined by Surface Plasmon Resonance using a Biacore T100 instrument. A biosensor chip CM5 (GE Healthcare) was covalently bound to an anti-Fc (8000 RU) and then treated with antibodies at different concentrations (<1000 RU). Recombinant protein HER3-ECD-Fc (RnD Systems) in HBS-EP buffer at the analyte concentration 1:1 was injected for 2 minutes at 30 μl/min, followed by a 10 minutes dissociation phase. [0175] Cross-reactivity with mouse HER3 receptor and with other human ErbB receptors. […] After a wash in FACS buffer, an anti-mouse IgG conjugated with Phycoerythrin (PE, Becton Dickinson) was added and cells were analyzed by a FACSCalibur (Becton Dickinson). […] After 2 washes with PBS, 0.05% Tween20, the signal was measured by incubation with a biotinylated goat anti-NRG-1β antibody (RnD Systems) and Streptavidin conjugated with peroxidase and utilizing an HRP substrate (Pierce). Data were acquired with an ELISA reader at 450 nm. […]

[3] = target: T3, HER1/EGFR (human, UniProt P00533 25-1210); assay: flow cytometry on transiently transfected CHO cells
T3 construct: whole, on cells

[4] = target: T4, HER4 (human, UniProt Q15303 26-1308); assay: as above
T4 construct: whole, on cells; also called ErbB4
T4 sequence (Q15303 26-1308): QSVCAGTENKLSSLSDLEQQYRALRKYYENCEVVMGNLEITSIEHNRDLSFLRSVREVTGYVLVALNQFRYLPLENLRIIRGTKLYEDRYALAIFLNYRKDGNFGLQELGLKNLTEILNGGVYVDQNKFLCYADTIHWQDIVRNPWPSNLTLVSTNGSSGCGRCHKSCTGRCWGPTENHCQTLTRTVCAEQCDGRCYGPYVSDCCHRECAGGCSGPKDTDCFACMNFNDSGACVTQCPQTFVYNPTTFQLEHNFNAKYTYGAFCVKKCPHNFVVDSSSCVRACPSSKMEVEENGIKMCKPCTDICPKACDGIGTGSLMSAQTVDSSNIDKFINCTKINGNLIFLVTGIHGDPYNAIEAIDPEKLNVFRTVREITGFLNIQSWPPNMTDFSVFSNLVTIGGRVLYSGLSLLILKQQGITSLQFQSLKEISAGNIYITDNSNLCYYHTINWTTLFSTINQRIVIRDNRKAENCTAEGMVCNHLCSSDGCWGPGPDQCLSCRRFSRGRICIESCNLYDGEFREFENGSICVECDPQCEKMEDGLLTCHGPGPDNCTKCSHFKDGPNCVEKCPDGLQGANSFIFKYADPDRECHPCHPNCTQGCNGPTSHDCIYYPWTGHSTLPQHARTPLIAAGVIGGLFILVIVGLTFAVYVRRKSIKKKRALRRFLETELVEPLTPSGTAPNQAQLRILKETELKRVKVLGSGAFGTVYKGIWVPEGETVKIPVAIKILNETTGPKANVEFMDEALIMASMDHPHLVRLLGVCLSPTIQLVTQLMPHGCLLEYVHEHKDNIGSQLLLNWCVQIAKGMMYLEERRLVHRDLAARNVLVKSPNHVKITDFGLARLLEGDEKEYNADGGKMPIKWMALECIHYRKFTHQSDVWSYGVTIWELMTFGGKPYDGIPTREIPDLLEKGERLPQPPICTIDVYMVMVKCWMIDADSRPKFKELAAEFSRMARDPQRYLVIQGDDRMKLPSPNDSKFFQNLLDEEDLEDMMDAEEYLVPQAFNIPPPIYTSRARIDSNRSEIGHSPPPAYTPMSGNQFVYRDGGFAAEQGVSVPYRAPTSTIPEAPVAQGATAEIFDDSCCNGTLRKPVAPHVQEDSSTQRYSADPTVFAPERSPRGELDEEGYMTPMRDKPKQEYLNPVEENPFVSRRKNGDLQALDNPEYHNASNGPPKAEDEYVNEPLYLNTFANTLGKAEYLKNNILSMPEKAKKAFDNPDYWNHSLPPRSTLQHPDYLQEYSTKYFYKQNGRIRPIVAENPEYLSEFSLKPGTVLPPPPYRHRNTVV

[5] = target: T5, HER2 (human, UniProt P04626 23-1255); assay: as above
T5 construct: whole, on cells; also called ErbB2

[6] = target: T2, Recombinant protein HER3-ECD-Fc (RnD …); assay: competition ELISA (NRG Ligand Blocking): HER3-ECD-Fc on the plate, antibody, then 10 nM NRG-1β, bound NRG detected
[7] = target: T6, human ErbB3 15mer peptide QCNGHCFGPNPNQCC (human); assay: ELISA on plate-coated 15mer peptides, A3 at 1 µg/ml
T6 construct: One of 158 15mer peptides of human ErbB3 overlapping by 11 residues (Jerini Peptide Technologies), coated on the ELISA plate
T6 peptide: QCNGHCFGPNPNQCC
Method: To identify the epitope recognized by A3 antibody, a human ErbB3 peptide collection consisting of 158 15mer peptides overlapping by 11 residues (Jerini Peptide Technologies, Berlin, Germany) has been utilized. Each peptide was resuspended in DMSO at 40 mg/ml and diluted in sodium carbonate buffer (10 mM, pH 9.6) at 1 μg/ml in 96well plates (Nunc Maxisorp) at a volume of 100 μl/well and incubated over night at 4° C. Human ErbB3 ECD-Fc protein (RnD) and buffer coated wells were used as positive and negative controls of the assay, respectively. The day after, plates were washed with 200 μl PBS 1× pH 7.4 and blocked with PBS 5% BSA for 2 hr at room temperature. After three washes with PBS, 0.05% Tween20 (PBST), plates were incubated for 2 hours at room temperature with A3 antibody diluted at 1 μg/ml in PBST, 1% BSA for 2 hours at room temperature. Plates were then washed three times in PBST and then incubated with 1/5000 diluted goat anti-mouse IgG HRP conjugated (Abcam) for one hour. After three washing in PBST, 100 μl/well 3, 3′, 5, 5′-Tetramethylbenzidine (TMB) Liquid Substrate (Sigma) were added and the reaction stopped 20 minutes later with 50 μl/well Stop Reagent for TMB Substrate (Sigma). OD₄₅₀ was determined at an ELISA reader (Perkin Elmer).

[8] = target: T1, mouse HER3; assay: flow cytometry on CHO cells transiently transfected with mouse HER3, antibody at 10 µg/ml

T1 sequence (Q61526 20-1339): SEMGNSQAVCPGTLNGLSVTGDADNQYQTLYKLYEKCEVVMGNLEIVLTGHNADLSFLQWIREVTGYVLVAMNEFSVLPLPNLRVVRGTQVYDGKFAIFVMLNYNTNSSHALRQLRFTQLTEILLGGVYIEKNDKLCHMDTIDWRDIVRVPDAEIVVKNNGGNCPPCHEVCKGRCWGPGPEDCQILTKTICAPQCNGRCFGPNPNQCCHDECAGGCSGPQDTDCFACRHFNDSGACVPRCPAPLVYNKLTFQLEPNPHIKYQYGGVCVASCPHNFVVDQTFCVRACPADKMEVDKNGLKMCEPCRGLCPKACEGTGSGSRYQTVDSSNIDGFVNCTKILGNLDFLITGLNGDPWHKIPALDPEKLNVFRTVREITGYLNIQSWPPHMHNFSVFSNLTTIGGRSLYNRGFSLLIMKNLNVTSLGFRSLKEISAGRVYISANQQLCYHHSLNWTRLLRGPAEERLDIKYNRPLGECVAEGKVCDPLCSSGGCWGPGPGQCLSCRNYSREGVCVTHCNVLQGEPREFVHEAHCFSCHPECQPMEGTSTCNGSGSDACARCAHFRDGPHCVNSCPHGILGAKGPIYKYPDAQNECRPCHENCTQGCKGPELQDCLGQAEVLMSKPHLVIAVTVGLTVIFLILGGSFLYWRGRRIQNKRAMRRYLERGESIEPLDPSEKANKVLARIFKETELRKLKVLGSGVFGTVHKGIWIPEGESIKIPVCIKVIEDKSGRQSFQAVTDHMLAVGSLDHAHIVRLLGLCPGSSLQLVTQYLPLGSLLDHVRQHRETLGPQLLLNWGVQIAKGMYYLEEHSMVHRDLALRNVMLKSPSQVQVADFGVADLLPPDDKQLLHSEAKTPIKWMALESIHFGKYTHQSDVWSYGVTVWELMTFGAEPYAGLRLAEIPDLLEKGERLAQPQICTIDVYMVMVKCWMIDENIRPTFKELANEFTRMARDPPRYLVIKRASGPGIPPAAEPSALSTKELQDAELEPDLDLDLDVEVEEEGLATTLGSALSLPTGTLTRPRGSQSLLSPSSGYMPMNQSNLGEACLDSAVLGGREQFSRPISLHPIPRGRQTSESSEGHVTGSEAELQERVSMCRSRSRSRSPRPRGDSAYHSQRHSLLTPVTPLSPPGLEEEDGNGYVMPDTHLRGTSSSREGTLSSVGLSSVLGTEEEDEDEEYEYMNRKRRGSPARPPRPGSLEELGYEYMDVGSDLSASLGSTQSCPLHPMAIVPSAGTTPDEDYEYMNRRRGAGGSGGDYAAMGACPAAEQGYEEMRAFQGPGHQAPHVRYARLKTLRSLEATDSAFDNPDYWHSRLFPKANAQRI

B1: Antibody A4 (antibody, V domains shown)
VH: QVQLQQPGSELVRPGASVKLSCKASGYTFTIFWIHWVKQRPGQGLEWIGNIYPGSGGTNYDEKFKSKATLTVDTFSSTAYMQLSSLTSEDSAVYYCTRWGTGKDYWGQGTTLKVSS
VL: QIVLTQSPAIMSASPGEKVTMTCRARSSVSSSYLHWYQQKPGSSPKLWIYSTSNLALGVPARFSGSGSGTSYSLTISSVEAEDAATYYCQQYDSSPFTFGTGTKLEIKR
notes: Murine monoclonal IgG with a kappa light chain, from a hybridoma; also called murine A4; A4 monoclonal antibody
binding result [1]: no binding (tested: 10 µg/ml)
Kd [2]: 2.4 nM
binding result [3]: no binding (tested: 10 µg/ml)
binding result [4]: no binding (tested: 10 µg/ml)
binding result [5]: no binding (tested: 10 µg/ml)
IC50 [6]: 2.8 nM

B2: Antibody A3 (antibody, V domains shown)
VH: QVTLKESGPGKLQPSQTLSLTCSFSGFSLSTYGMGVGWIRQPLGKGLEWLANIWWNDDKYYNSALKSRLTISKDTSNNQVFLKISSVDTADAATYYCVQIANPYWYFDVWGAGTTVTVSS
VL: DVLMTQTPLSLPVSLGDQASISCRSSQSIVHSYGNTYLEWYLQKPGQSPKLLIYRVSNRFSGVPDRFSGSGSGTDFTLKISRVEAEDLGVYYCFQGSHVPFTFGTGTKLEIKR
notes: Murine monoclonal IgG from a hybridoma of BALB/c mice immunised with HER3 H584F DNA; also called A3 monoclonal antibody
Kd [2]: 7.4 nM
binding result [3]: no binding (tested: 10 µg/ml)
binding result [4]: no binding (tested: 10 µg/ml)
binding result [5]: no binding (tested: 10 µg/ml)
binding result [7]: binds
IC50 [6]: 1.1 nM
binding result [8]: binds
